# B1: NLV3 TCR beta chain (CDR3β only) (parent)
# chain: ASSPTGGSPSPLH
# partner: MLVPMVATV
# B2: NLV2 TCR alpha chain (CDR3α only) (parent)
# chain: AGPMKTSYDKVI
# Variants of: B1
# Experiment: T-Switch: Jurkat TCRβ−/− cells expressing a CDR3 saturation-mutagenesis library, stained with two peptide-HLA-A*02:01 tetramers (original and novel peptide) plus anti-CD3, FACS-sorted into four gates, gDNA sequenced
# Conditions: with HLA-A*02:01 with peptide … (NLV 3-1, the original bait), tetramers 1 µg/mL, 30 min on ice, DP and SW gates expanded about 10 days between rounds ('two to three rounds of selection' in the Methods), gate SP: higher = more of the variant in the gate that binds the original peptide and not the novel one = retained original binding. Fold enrichment of the CDR3 variant in one FACS gate of a two-tetra, unresolved parent, parent is a CDR3 fragment, scale: fold enrichment, numbering: sequential-on-construct, sequence …
row,Variant,enrichment
1,[…] (CDR3 as printed); H13G derived by comparing it with the table's wild-type CDR3 ASSPTGGSPSPLH,0.848
2,[…] (CDR3 as printed); P9S derived by comparing it with the table's wild-type CDR3 ASSPTGGSPSPLH,0.568
3,[…] (CDR3 as printed); H13Y derived by comparing it with the table's wild-type CDR3 ASSPTGGSPSPLH,6.69
4,[…] (CDR3 as printed); A1M derived by comparing it with the table's wild-type CDR3 ASSPTGGSPSPLH,0
5,[…] (CDR3 as printed); L12Q derived by comparing it with the table's wild-type CDR3 ASSPTGGSPSPLH,0
6,[…] (CDR3 as printed); P11M derived by comparing it with the table's wild-type CDR3 ASSPTGGSPSPLH,7.79
7,[…] (CDR3 as printed); P11Q derived by comparing it with the table's wild-type CDR3 ASSPTGGSPSPLH,5.97
8,[…] (CDR3 as printed); T5I derived by comparing it with the table's wild-type CDR3 ASSPTGGSPSPLH,11.6
9,[…] (CDR3 as printed); S3A derived by comparing it with the table's wild-type CDR3 ASSPTGGSPSPLH,9.82
10,[…] (CDR3 as printed); S8M derived by comparing it with the table's wild-type CDR3 ASSPTGGSPSPLH,0
11,[…] (CDR3 as printed); P9Q derived by comparing it with the table's wild-type CDR3 ASSPTGGSPSPLH,0
12,[…] (CDR3 as printed); G7R derived by comparing it with the table's wild-type CDR3 ASSPTGGSPSPLH,0
13,[…] (CDR3 as printed); P9Y derived by comparing it with the table's wild-type CDR3 ASSPTGGSPSPLH,0
14,[…] (CDR3 as printed); G7D derived by comparing it with the table's wild-type CDR3 ASSPTGGSPSPLH,0
15,[…] (CDR3 as printed); G6T derived by comparing it with the table's wild-type CDR3 ASSPTGGSPSPLH,0.64
16,[…] (CDR3 as printed); P11I derived by comparing it with the table's wild-type CDR3 ASSPTGGSPSPLH,1.23

row,Variant,enrichment
1,[…] (CDR3 as printed); G7M derived by comparing it with the table's wild-type CDR3 ASSPTGGSPSPLH,0
2,[…] (CDR3 as printed); S3R derived by comparing it with the table's wild-type CDR3 ASSPTGGSPSPLH,0
3,[…] (CDR3 as printed); A1T derived by comparing it with the table's wild-type CDR3 ASSPTGGSPSPLH,0
4,[…] (CDR3 as printed); S10D derived by comparing it with the table's wild-type CDR3 ASSPTGGSPSPLH,0.543
5,[…] (CDR3 as printed); S10P derived by comparing it with the table's wild-type CDR3 ASSPTGGSPSPLH,0
6,[…] (CDR3 as printed); A1L derived by comparing it with the table's wild-type CDR3 ASSPTGGSPSPLH,0
7,[…] (CDR3 as printed); S2M derived by comparing it with the table's wild-type CDR3 ASSPTGGSPSPLH,0
8,[…] (CDR3 as printed); T5Y derived by comparing it with the table's wild-type CDR3 ASSPTGGSPSPLH,15.6
9,[…] (CDR3 as printed); P4Q derived by comparing it with the table's wild-type CDR3 ASSPTGGSPSPLH,3.21
10,[…] (CDR3 as printed); S8V derived by comparing it with the table's wild-type CDR3 ASSPTGGSPSPLH,1.71
11,[…] (CDR3 as printed); G6F derived by comparing it with the table's wild-type CDR3 ASSPTGGSPSPLH,0
12,[…] (CDR3 as printed); L12N derived by comparing it with the table's wild-type CDR3 ASSPTGGSPSPLH,0
13,[…] (CDR3 as printed); P11R derived by comparing it with the table's wild-type CDR3 ASSPTGGSPSPLH,9.69
14,[…] (CDR3 as printed); P11S derived by comparing it with the table's wild-type CDR3 ASSPTGGSPSPLH,2.02
15,[…] (CDR3 as printed); G7C derived by comparing it with the table's wild-type CDR3 ASSPTGGSPSPLH,0

# Variants of: B2
# Experiment: as above
# Conditions: with both tetramers (double-negative gate, binds neither): HLA-A*02:01 with … and with …, tetramers 1 µg/mL, 30 min on ice, SP, DP and SW gates expanded about 10 days between rounds ('two to three rounds of selection' in the Methods), gate DN: OPPOSITE: higher = more of the variant in the gate that binds neither peptide = LESS binding (or no expression; inferred). Fold enrichment of the CDR3 variant in one FACS gate of a two-tetram, unresolved parent, parent is a CDR3 fragment, scale: fold enrichment, numbering: sequential-on-construct, sequence starts at 1
row,Variant,enrichment
1,[…] (CDR3 as printed); A1F derived by comparing it with the table's wild-type CDR3 AGPMKTSYDKVI,0.884
2,[…] (CDR3 as printed); A1C derived by comparing it with the table's wild-type CDR3 AGPMKTSYDKVI,0.8
3,[…] (CDR3 as printed); A1E derived by comparing it with the table's wild-type CDR3 AGPMKTSYDKVI,0.767
4,[…] (CDR3 as printed); A1D derived by comparing it with the table's wild-type CDR3 AGPMKTSYDKVI,0.746
5,[…] (CDR3 as printed); A1G derived by comparing it with the table's wild-type CDR3 AGPMKTSYDKVI,0.876
6,[…] (CDR3 as printed); A1H derived by comparing it with the table's wild-type CDR3 AGPMKTSYDKVI,0.735

# Same assay, conditions: with both tetramers (double-positive gate): HLA-A*02:01 with … and with …, tetramers 1 µg/mL, 30 min on ice, SP, DP and SW gates expanded about 10 days between rounds ('two to three rounds of selection' in the Methods), gate DP: higher = more of the variant in the gate that binds both peptides. Fold enrichment of the CDR3 variant in one FACS gate of a two-tetramer stain. SP/DP/SW gates were expanded and re-sorted bef, unresolved parent, parent is a CDR3 fragment, scale: fold enrichment, numbering: sequential-on-construct, sequence starts at 1
row,Variant,enrichment
1,[…] (CDR3 as printed); A1F derived by comparing it with the table's wild-type CDR3 AGPMKTSYDKVI,0
2,[…] (CDR3 as printed); A1C derived by comparing it with the table's wild-type CDR3 AGPMKTSYDKVI,0
3,[…] (CDR3 as printed); A1E derived by comparing it with the table's wild-type CDR3 AGPMKTSYDKVI,0
4,[…] (CDR3 as printed); A1D derived by comparing it with the table's wild-type CDR3 AGPMKTSYDKVI,0
5,[…] (CDR3 as printed); A1G derived by comparing it with the table's wild-type CDR3 AGPMKTSYDKVI,0
6,[…] (CDR3 as printed); A1H derived by comparing it with the table's wild-type CDR3 AGPMKTSYDKVI,0
